Measured values taken from patent publication US20150056219A1 (published 2015).
Residue numbers refer to the chain shown, from its start.

T1: human HVEM (human, UniProt Q92956 39-202)
T1 chain: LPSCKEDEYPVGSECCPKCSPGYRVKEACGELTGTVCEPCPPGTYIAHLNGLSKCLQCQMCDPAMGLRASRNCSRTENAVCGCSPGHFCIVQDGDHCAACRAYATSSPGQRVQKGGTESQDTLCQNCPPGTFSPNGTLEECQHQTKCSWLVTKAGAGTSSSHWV

T2: mouse HVEM (mouse, UniProt Q80WM9 39-206)
T2 chain: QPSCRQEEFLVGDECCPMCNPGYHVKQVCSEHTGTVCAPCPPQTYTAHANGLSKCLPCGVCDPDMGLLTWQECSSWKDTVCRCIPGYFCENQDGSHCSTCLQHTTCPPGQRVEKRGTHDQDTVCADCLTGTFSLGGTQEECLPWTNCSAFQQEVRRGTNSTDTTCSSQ

B1: m4-16 (protein)
chain: RRSHEVNPAAHLTGANFSLTGSGGPLLWETQLGQAFLRGLSYHDGALVVTKAGYYYIYSKVQLGGVGCPLGLASTITHGLYKRTPRYPEELELLVSQQSPCGRATSSSRVWWDSSFLGGVVHLEAGEEVVVRVLDDRLVRLRDGTRSYFGAFMV
B2: m4-14 (protein)
chain: B1 chain with F17S, Q34L, R38S, G64R, D135G, D136E
B3: m4-7 (protein)
chain: B1 chain with F17S, L19S, Q34L, G64R, D136E
B4: wild type human LIGHT (ligand)
chain: LIQERRSHEVNPAAHLTGANSSLTGSGGPLLWETQLGLAFLRGLSYHDGALVVTKAGYYYIYSKVQLGGVGCPLGLASTITHGLYKRTPRYPEELELLVSQQSPCGRATSSSRVWWDSSFLGGVVHLEAGEKVVVRVLDERLVRLRDGTRSYFGAFMV
B5: wt (ligand)
chain: B4 chain
B6: mLTbR (receptor)
chain: QLVPPYRIENQTCWDQDKEYYEPMHDVCCSRCPPGEFVFAVCSRSQDTVCKTCPHNSYNEHWNHLSTCQLCRPCDIVLGFEEVAPCTSDRKAECRCQPGMSCVYLDNECVHCEEERLVLCQPGTEAEVTDEIMDTDVNCVPCKPGHFQNTSSPRARCQPHTRCEIQGLVEAAPGTSYSDTICKNPPEPGAMLL
B7: hLTbR (receptor)
chain: QAVPPYASENQTCRDQEKEYYEPQHRICCSRCPPGTYVSAKCSRIRDTVCATCAENSYNEHWNYLTICQLCRPCDPVMGLEEIAPCTSKRKTQCRCQPGMFCAAWALECTHCELLSDCPPGTEAELKDEVGKGNNHCVPCKAGHFQNTSSPSARCQPHTRCENQGLVEAAPGTAQSDTTCKNPLEPLPPEMSGTMLM
B8: hHVEM (receptor)
chain: T1 chain
B9: mHVEM (receptor)
chain: T2 chain

Biological target: T1, human HVEM
For B1, the Kd was 2.24 nM. In the case of B2, the Kd is reported as 38.5 nM. Work on B3 yielded a Kd of 0.92 nM.

These binders were tested against human LTβR (human, UniProt P36941 31-227).
For B4, the Kd was 1.3 nM. Binder B1 has a Kd of 0.13 nM. With B2 the Kd was 0.16 nM. Work on B3 yielded a Kd of 0.157 nM.

What follows are binders tested against mouse LTβR (mouse, UniProt P50284 31-223).
With B1 the Kd was 0.192 nM. B2 was tested, and the Kd was 0.094 nM. B3 showed a Kd of 0.118 nM.

Biological target: T2, mouse HVEM
B1 showed a Kd of 2.22 nM. With B2 the Kd was 0.29 nM. B3 gave a Kd of 5.03 nM.

These binders were tested against DcR3.
With B5 the Kd was 0.6 nM.

Each binder was assayed against m4-52.
With B6 the Kd was 0.68 nM. With B7 the Kd was 1.12 nM. For B8, the Kd was 1.42 nM. B9 was tested, and the Kd was 2.44 nM.
